Test results published in article PMC11960800 (The FASEB Journal, 2025).

T1: fibulin‐4 (FBLN4), recombinant full-length human (human, UniProt O95967 24-443)
T1 sequence (looked up): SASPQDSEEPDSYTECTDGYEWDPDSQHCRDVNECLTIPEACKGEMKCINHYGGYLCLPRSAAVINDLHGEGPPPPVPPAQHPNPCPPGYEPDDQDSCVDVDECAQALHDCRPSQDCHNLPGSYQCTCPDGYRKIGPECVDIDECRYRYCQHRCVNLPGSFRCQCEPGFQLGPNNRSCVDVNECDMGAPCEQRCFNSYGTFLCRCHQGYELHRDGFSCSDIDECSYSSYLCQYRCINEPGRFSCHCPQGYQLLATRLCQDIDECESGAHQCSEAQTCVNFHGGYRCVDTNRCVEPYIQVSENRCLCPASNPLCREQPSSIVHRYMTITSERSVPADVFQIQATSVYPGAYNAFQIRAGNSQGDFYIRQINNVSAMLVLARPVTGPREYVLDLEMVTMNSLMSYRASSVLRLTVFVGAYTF


Columns and labels:
Experiment in all cases: SPR
[1] = molecular target: latent TGF‐β binding protein‐4, short isoform (LTBP4S), recombinant full-length human (human)
[2] = molecular target: T1, fibulin‐4 (FBLN4), recombinant …
[3] = molecular target: latent TGF‐β binding protein‐4, long isoform (LTBP4L), recombinant full-length human (human, UniProt Q8N2S1-1 28-1624)

| Molecule | koff [1] [s⁻¹] | koff [2] [s⁻¹] | koff [3] [s⁻¹] |
| --- | --- | --- | --- |
| recombinant syndecan-3 ectodomain (SDC3‐ED) (from UniProt O75056 48-387) (domain or fragment) | 6.3e-05 | – | – |
| recombinant syndecan-2 ectodomain (SDC2‐ED) (domain or fragment, human, UniProt P34741 19-144, looked up) ESRAELTSDKDMYLDNSSIEEASGVYPIDDDDYASASGSGADEDVESPELTTSRPLPKILLTSAAPKVETTTLNIQNKIPAQTKSPEETDKEKVHLSDSERKMDPAEEDTNVYTEKHSDSLFKRTE | – | 0.00041 | – |
| recombinant syndecan-3 ectodomain (SDC3‐ED) (domain or fragment, human, UniProt O75056 48-387, looked up) QRWRSENFERPVDLEGSGDDDSFPDDELDDLYSGSGSGYFEQESGIETAMRFSPDVALAVSTTPAVLPTTNIQPVGTPFEELPSERPTLEPATSPLVVTEVPEEPSQRATTVSTTMATTAATSTGDPTVATVPATVATATPSTPAAPPFTATTAVIRTTGVRRLLPLPLTTVATARATTPEAPSPPTTAAVLDTEAPTPRLVSTATSRPRALPRPATTQEPDIPERSTLPLGTTAPGPTEVAQTPTPETFLTTIRDEPEVPVSGGPSGDFELPEEETTQPDTANEVVAVGGAAAKASSPPGTLPKGARPGPGLLDNAIDSGSSAAQLPQKSILERKEVLV | – | 0.00082 | 5.5e-05 |
